This data set deals with the molecule itself. In words: SEC; purified recombinant protein (40 μg in 50 μl) on a TOSOH G2000 SWXL column in hexokinase buffer (20 mM HEPES, 5 mM Mg acetate, 100 mM NaCl, 0.5 mM EDTA, 0.5 mM DTT) without glucose, no ATP, 1 mL/min. On the technique in general: SEC sorts molecules by how far they enter the pores of the column.

B1: Recombinant Hxk2, wild type, C-terminal 6-histidine tag, from E. coli (enzyme, S. cerevisiae, UniProt P04807 1-486, looked up)
chain: MVHLGPKKPQARKGSMADVPKELMQQIENFEKIFTVPTETLQAVTKHFISELEKGLSKKGGNIPMIPGWVMDFPTGKESGDFLAIDLGGTNLRVVLVKLGGDRTFDTTQSKYRLPDAMRTTQNPDELWEFIADSLKAFIDEQFPQGISEPIPLGFTFSFPASQNKINEGILQRWTKGFDIPNIENHDVVPMLQKQITKRNIPIEVVALINDTTGTLVASYYTDPETKMGVIFGTGVNGAYYDVCSDIEKLQGKLSDDIPPSAPMAINCEYGSFDNEHVVLPRTKYDITIDEESPRPGQQTFEKMSSGYYLGEILRLALMDMYKQGFIFKNQDLSKFDKPFVMDTSYPARIEEDPFENLEDTDDLFQNEFGINTTVQERKLIRRLSELIGARAARLSVCGIAAICQKRGYKTGHIAADGSVYNRYPGFKEKAANALKDIYGWTQTSLDDYPIKIVPAEDGSGAGAAVIAALAQKRIAEGKSVGIIGA
notes: Hexokinase 2 (Hxk2) of S. cerevisiae; also called WT Hxk2; wild-type Hxk2; source: E. coli (pET14b), purified (Ni-NTA)
As usually defined, the stoichiometry N is a count of units in the complex or per binding partner. Take B1: the “stoichiometry N” value came out at 2.
